This note sets out measurements from PMC10746170.

The data set deals with T1, His6-GacA (Acinetobacter baumannii (strain ATCC 17978?)), ORF:4711fff2.
T1 sequence: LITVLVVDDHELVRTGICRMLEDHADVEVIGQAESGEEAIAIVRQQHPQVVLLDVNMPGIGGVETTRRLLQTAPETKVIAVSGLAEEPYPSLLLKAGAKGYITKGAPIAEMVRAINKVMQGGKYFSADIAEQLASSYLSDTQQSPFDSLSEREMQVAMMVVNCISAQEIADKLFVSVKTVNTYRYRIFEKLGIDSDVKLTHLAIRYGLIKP
Put plainly: EMSA. To be noted: 20 mM Tris pH 8.0, 150 mM NaCl, 10 mM EDTA, 100 ug/mL BSA, 20 mM acetyl phosphate, 10% glycerin, 1 mM DTT; ~10 nM probe; 20 min, room temperature; 6% native …. For orientation: A gel shift assay detects complexes by their altered migration in electrophoresis.

Consider “CTCGTCATTATTAAGGCACGAGCTTGAATTAAACTGCACATCTAGTGTCAGTTGCTTATAGTGGCTATTGTCTTAGTATTTTTAAAAATCTGCAATATCTTTTTTTTAAAATTACCTAAGAAAATAAAAATATTTCAGAAAACTTTTTAGTTTTAAAAAATTTATAGTTTCTAATTATAAATAGCTTGCACAAAAAAACCAGCTTTAAAGCTGGTCTATTTTTAAATTATCACGGCGTATGAAGCTGTGTTTCCGTGTACGGACCTATTTCCGTTTCCTGTATTCCTCCGCTTCCGGAAT (double strand) [dotI promoter probe]”, for which the binding entry is listed as “binds”. As for “TTCTATAAATAAGAAATAAAGAATTTATTAATGCGTATAGTGCACAGCAAATATTATAAATTAATAAAGGTTGGTTAAAGGTTTGTTTTACAAGTATATGAAATGAATTAAAATTTTTTAATTTTATTTTTACGGTGTAAGCTTGTGATAAATAAAAATTAATAGCTAGAAAACTTATTTAAAACTTTTTAGTCTAATAGCATATTAAATTAAATTGAGCTTTATTATTTATAGCGAAATATATAACACTCGCTGAAACTTGGTTGATTTTTAATAATCAAGATAATAAAGGAAAAGGAT (double strand) [PDC promoter probe]”, the entry is “binds”.
